Experiments:
[1] = target: Recombinant His-tagged SCY1 (Scylla paramamosain); experiment: SPR; Biacore T200, CM5 chip; rSCY1-4 immobilised (~200 resonance units), blank or rTrx reference cell; rSCY1-5 diluted in PBS and injected (28.8 to 0.45 µM), multiple cycle kinetics, 25 °C, 120-s association and 120-s dissociation
[2] = target: Recombinant His-tagged SCY2 (Scylla paramamosain); experiment: as above
[3] = target: T1, rSCY4; experiment: biolayer interferometry (Octet); type: binding, Scylla paramamosain; settings: biotinylated protein on Super Streptavidin sensor; progesterone 0.125-4 mM; phosphate-saline buffer pH 7.4, 0.02% Tween 20; room temperature
T1 construct: gene SCY4; biotinylated for BLI

[4] = target: T2, rSCY3 (Scylla paramamosain, UniProt A0AAW0UC28); experiment: biolayer interferometry (Octet); type: binding; settings: biotinylated protein on Super Streptavidin sensor; progesterone 0.125-4 mM; phosphate-saline buffer pH 7.4, 0.02% Tween 20; room temperature
T2 construct: gene O3P69_004699; precursor printed as 124 aa; biotinylated for BLI
T2 sequence (A0AAW0UC28 11-110): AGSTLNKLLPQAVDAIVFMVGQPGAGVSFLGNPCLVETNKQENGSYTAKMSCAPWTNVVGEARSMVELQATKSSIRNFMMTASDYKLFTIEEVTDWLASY

[5] = target: T3, rSCY5; experiment: biolayer interferometry (Octet); type: binding, Scylla paramamosain; settings: biotinylated protein on Super Streptavidin sensor; progesterone 0.125-4 mM; phosphate-saline buffer pH 7.4, 0.02% Tween 20; room temperature
T3 construct: gene SCY5; biotinylated for BLI

Row | Compound | Kd [1] [µM] | Kd [2] [µM] | Kd [3] [µM] | Kd [4] [µM] | Kd [5] [µM]
1 | Recombinant Trx-tagged SCY5 (natural protein) | 0.14 | 0.15 | – | – | –
2 | Recombinant His-tagged SCY4 (natural protein) | 6.86 | 14 | – | – | –
3 | Recombinant His-tagged SCY3 (natural protein) | 4.12 | 0.62 | – | – | –
4 | Recombinant His-tagged SCY2 (natural protein) | 11.3 | – | – | – | –
5 | CC(=O)[C@H]1CC[C@H]2[C@@H]3CCC4=CC(=O)CC[C@]4(C)[C@H]3CC[C@]12C [progesterone] | – | – | 2280 | 30800 | 25300

From PMC10053787, “A New Gene SCY3 Homologous to Scygonadin Showing Antibacterial Activity and a Potential Role in the Sperm Acrosome Reaction of Scylla paramamosain” (International Journal of Molecular Sciences, 2023)
